US10765761B2, “Nucleic acid condensing peptide, nucleic acid condensing peptide set, nucleic acid delivery carrier, nucleic acid delivery method, cell production method, cell detection method and kit” (KABUSHIKI KAISHA TOSHIBA, priority 2016, dated 2020)

Tested on: plasmid vector (pDNA)
Experiment: Average particle diameter, polydispersity index and Zeta potential of peptide-nucleic-acid complexes, Example 6
Type: physicochemical
Conditions: peptide-nucleic-acid complex, total peptide 0.24 mg/ml, pDNA 0.15 mg/ml
Description: Each of the peptides was dissolved into 10 mM-HEPES (pH: 5.4) to prepare several peptide solutions having different peptide concentrations.
For the mHP-1, one peptide solution was prepared to have a peptide concentration of (1) 0.24 mg/ml. For the mHP-2, one peptide solution was prepared to have a peptide concentration of (2) 0.24 mg/ml. For the mHP-1 and mHP-2, five peptide solutions were prepared to have a total peptide concentration of 0.24 mg/ml and mixture ratios between mHP-1 and mHP-2 of: (3) 1:1, (4) 1:3, (5) 1:5, (6) 1:7 and (7) 1:9. Meanwhile, plasmid vector (pDNA) was diluted with purified water to prepare a nucleic acid solution having a pDNA concentration of 0.15 mg/ml.
The peptide solutions (1) to (7) (100 μL) were prepared in tubes and the nucleic acid solution (200 μL) was dropped and mixed thereto while stirring each solution to condense the nucleic acids, and thus peptide-nucleic-acid complexes were obtained.
The peptide-nucleic-acid complexes were investigated in terms of average particle diameter, polydispersity index and Zeta potential using the respective peptide-nucleic-acid solutions. The average particle diameter, polydispersity index and Zeta potential were measured using a zetasizer.

RQRQRYYRQRQRGGRRRRRR (Nucleic acid condensing peptide) [mHP-1]
Average particle diameter (zAve): 156.6 nm | Polydispersity index (PDI): 0.190 | Zeta potential: −31.1 mV
